Earlier results on 4 compounds are cited in US20100048679A1, “POLYNUCLEOTIDE THERAPY” (Bayhill Therapeutics, Inc., priority 2006, published 2010).

Read-outs that look alike come from different tables or passages of the source.

This data set relates to patients.

For the compound natalizumab [Tysabri], the Significant side effects entry (MS patients, literature) is “decreases lymphocyte trafficking”.
Take interferon β: where the note is “MS patients, literature”, the Significant side effects entry is reported as “flu-like symptoms”.
In the case of `O=C1c2c(O)ccc(O)c2C(=O)c2c(NCCNCCO)ccc(NCCNCCO)c21` [mitoxantrone], the Significant side effects entry (MS patients, literature) is “myelosuppression with increased risk for infections”.
As for glatiramer acetate, the Significant side effects entry (in vivo) is listed as “allergic reactions”.
